Measurements reported in patent publication US20140341939A1 (NATIONAL UNIVERSITY CORPORATION KOCHI UNIVERSITY, priority 2011, published 2014).
Where no end group is shown, it is not given here. [ ]: non-standard residue; d: D form. The star is where a group is joined. Biotin = O=C1N[C@H]2[C@H](CS[C@H]2CCCCC(=O)*)N1; βAla = NCCC(=O)O

Key:
[1] = molecular target: T1, HLA-DR molecule (Homo sapiens, UniProt P01903+P01911, A100R/A169T/D86S/F76Y/I96L/K127E/L162R/M171V/N62H/P40V/Q125Y/R42H/S133A/S149N/S66Y/V115G/V209L/W38E); assay: Binding of biotinylated W332 peptide to CH1-DR4 cell; conditions: cultured 5 hr, FITC-streptavidin, flow cytometry (FIG. 29A)
T1 construct: expressed in transfected cells; host or cells: CH1-DR4 (CH1-DRB1*04:05) cells

[2] = molecular target: T2, HLA-DR4 molecule (Homo sapiens, UniProt P01903+P01911, A100R/A169T/D86S/F76Y/I96L/K127E/L162R/M171V/N62H/P40V/Q125Y/R42H/S133A/S149N/S66Y/V115G/V209L/W38E); assay: Peptide binding to HLA-DR4 molecule on CH1-DR4 cells with p-chlorophenol; conditions: PCP added, 37° C. 4 hr, FITC-streptavidin (FIG. 31)
T2 construct: expressed in transfected cells; host or cells: CH1-DRB1*04:05 (CH1-DR4) cells
Experimental: CH1-DRB1*04:05 cells (CH1-DR4 cells) were suspended in 20% FCS IMDM ([…]) at 2×10^6/ml, so that 50 μl could provide 1×10^5 cells/well in a 96 well U plate. Then, 20 μM bTR174 (PSK^bio[…]^bioPβA: SEQ ID NO: 41) (biotinylation index peptide) was added at 100 μl per well, and IMDM containing 8 mM PCP was further added at 50 μl per well, and finally, CH1-DR4 cells were added at 50 μl (1×10^5/well) and the mixture was incubated at 37° C. for 4 hr. Free peptide was removed by centrifugation, the cells were stained with FITC-streptavidin, and measured by flow cytometer. […] By adding a competitive peptide, which is generated by adding a peptidase resistant sequence to the terminal of an unlabeled peptide, to this experiment system, the binding activity of the unlabeled peptide can be quantitatively measured.

Row | Substance | binding to cell that expresses HLA-DR molecule [1] | binding of biotin-labeled peptide to HLA-DR4 molecule [2]
1 | PSK^bioKRYFKLSHLQMHSRKHK^bioPβA (PSK(Biotin)KRYFKLSHLQMHSRKHK(Biotin)P[βAla]) [PbW332bPβ] | bind to CH1-DR4 cell | 
2 | PSK^bioREFKLSKVWRDQK^bioPβA (PSK(Biotin)REFKLSKVWRDQK(Biotin)P[βAla]) [bTR174, biotinylation index peptide] |  | replaced a peptide endogenously bound to an HLA-DR4 molecule, in a PCP concentration dependent manner
